Results taken from PMC13623127 (PLOS One, 2026).

T1: vascular endothelial cell growth inhibitor (TNF ligand superfamily member 15), recombinant soluble form (human, UniProt O95150 72-251)
T1 construct: also called VEGI
T1 sequence (looked up): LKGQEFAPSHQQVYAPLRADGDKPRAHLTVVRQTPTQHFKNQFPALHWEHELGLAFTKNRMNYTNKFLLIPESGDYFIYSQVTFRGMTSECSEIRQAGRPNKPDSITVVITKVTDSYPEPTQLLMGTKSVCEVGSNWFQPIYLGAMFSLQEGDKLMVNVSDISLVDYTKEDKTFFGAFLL

T2: A proliferation-inducing ligand (TNF ligand superfamily member 13), recombinant soluble form (human, UniProt O75888 105-250)
T2 construct: A proliferation-inducing ligand (TNF ligand superfamily member 13), human, recombinant soluble form; also called APRIL
T2 sequence (looked up): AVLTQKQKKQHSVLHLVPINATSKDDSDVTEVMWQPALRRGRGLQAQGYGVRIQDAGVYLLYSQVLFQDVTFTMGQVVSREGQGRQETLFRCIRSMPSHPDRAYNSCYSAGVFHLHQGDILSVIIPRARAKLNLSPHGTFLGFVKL

T3: TNF-related weak inducer of apoptosis (TNF ligand superfamily member 12), recombinant soluble form (human, UniProt O43508 94-249)
T3 construct: TNF-related weak inducer of apoptosis (TNF ligand superfamily member 12), human, recombinant soluble form; also called TWEAK
T3 sequence (looked up): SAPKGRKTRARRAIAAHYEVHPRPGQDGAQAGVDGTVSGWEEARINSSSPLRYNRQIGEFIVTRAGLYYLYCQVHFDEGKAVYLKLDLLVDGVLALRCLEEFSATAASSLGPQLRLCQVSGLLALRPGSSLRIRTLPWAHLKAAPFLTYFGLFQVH

T4: activation-inducible TNF-related ligand (TNF ligand superfamily member 18), recombinant soluble form (human, UniProt Q9UNG2 49-177)
T4 construct: also called AITRL
T4 sequence (looked up): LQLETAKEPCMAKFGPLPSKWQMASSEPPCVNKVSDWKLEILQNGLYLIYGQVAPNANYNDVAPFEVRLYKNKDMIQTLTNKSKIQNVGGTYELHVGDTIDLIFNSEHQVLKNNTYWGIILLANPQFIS


Columns and labels:
Assay in all cases: SPR; TNFSF member immobilised on ProteOn GLH chip by amine coupling (up to 5,000-14,500 RU); S100 analyte 62.5 nM to 16 uM, 300 s at 30 uL/min; 25°C; 10 mM HEPES-NaOH, 150 mM NaCl, 0.05% TWEEN 20, 1 mM CaCl2, pH 7.4; heterogeneous ligand, one-site or two-state model; constants averaged over analyte concentrations (SD, n = 2-9)
Conditions in all cases: both partners purified
[1] = target: T1, vascular endothelial cell growth …
[2] = target: T2, A proliferation-inducing ligand (TNF …)
[3] = target: T3, TNF-related weak inducer of apoptosis …
[4] = target: T4, activation-inducible TNF-related ligand …

| Binder | Kd [1] [µM] | koff [1] [s⁻¹] | Kd [2] [nM] | koff [2] [s⁻¹] | Kd [3] [nM] | koff [3] [s⁻¹] | Kd [4] [µM] | koff [4] [s⁻¹] |
| --- | --- | --- | --- | --- | --- | --- | --- | --- |
| recombinant tag-free human S100P (natural protein, UniProt P25815 1-95, looked up, S100P, human, recombinant, tag-free; Tag-free) MTELETAMGMIIDVFSRYSGSEGSTQTLTKGELKVLMEKELPGFLQSGKDKDAVDKLLKDLDANGDAQVDFSEFIVFVAAITSACHKYFEKAGLK | 11.1 | 0.0123 | – | – | – | – | – | – |
| recombinant tag-free human S100B (natural protein, UniProt P04271 1-92, looked up, S100B, human, recombinant, tag-free; Tag-free) MSELEKAMVALIDVFHQYSGREGDKHKLKKSELKELINNELSHFLEEIKEQEVVDKVMETLDNDGDGECDFQEFMAFVAMVTTACHEFFEHE | – | – | – | – | – | – | 12 | 0.00626 |

The remaining lines, values ahead:

| Kd [1] [µM] | koff [1] [s⁻¹] | Kd [2] [nM] | koff [2] [s⁻¹] | Kd [3] [nM] | koff [3] [s⁻¹] | Kd [4] [µM] | koff [4] [s⁻¹] | Binder |
| --- | --- | --- | --- | --- | --- | --- | --- | --- |
| – | – | 11 | 4.85e-06 | 75.7 | 3.29e-05 | 0.409 | 0.000275 | recombinant tag-free human S100A5 (natural protein, UniProt P33763 1-92, looked up, S100A5, human, recombinant, tag-free; Tag-free) METPLEKALTTMVTTFHKYSGREGSKLTLSRKELKELIKKELCLGEMKESSIDDLMKSLDKNSDQEIDFKEYSVFLTMLCMAYNDFFLEDNK |
| – | – | 684 | 0.00122 | – | – | – | – | recombinant tag-free human S100A2 (natural protein, S100A2, human, recombinant, tag-free; Tag-free) not shown |
